Test results: the supplement of paper PMC10126150
± gives the standard deviation of the averaged measurements.

System: ATP
Test: switch fluorescence ratio, 500 uM ATP over buffer (Cy3 cluster intensity, sum of 5 cycles each) (fold (ratio)); higher = stronger signal-on switching upon ATP binding; sequences stand for … in TCGTCGGCAGCGTCAGATGTGTATAAGAGACAGTTTTTTTTTTTTTTTTTTTTTTTTT…TC
Conditions: aptamer strand: ATP DNA aptamer (quencher-CACCTGGGGGAGTATTGCGGAGGAAGG + anchor), 100 nM annealed; ATP concentration: 500 uM
Summary of the method: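 Clusters carrying Cy3-labelled switching strands on a modified Illumina MiSeq flow-cell were annealed to 100 nM quencher-labelled ATP aptamer and imaged in selection buffer. They were imaged again after 15 min with 500 uM ATP at 22 °C, over five buffer/ATP cycles with NaOH stripping and re-annealing in between. For each cluster, the fluorescence ratio is the summed Cy3 intensity of the target cycles divided by that of the buffer cycles, averaged per switch-domain sequence. Clusters outside 100-1000 RFU were left out.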
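Also: ATP exposure 15 min at 22 °C before imaging.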

| Sequence | switch fluorescence ratio |
| --- | --- |
| CGGATAATTG | 0.9886 ± 0.0054 |
| CGGATATGGA | 0.988 ± 0.058 |
| CGGATATGGC | 1.03 ± 0.1 |
| CGGATATTGC | 1 ± 0.059 |
| CGGATCCAGG | 1.35 ± 0.042 |
| CGGATCGATT | 0.9907 ± 0.0018 |
| CGGATGAGTG | 0.953 ± 0.1 |
| CGGATGGGGC | 1 ± 0.042 |
| CGGATTAGGT | 0.993 ± 0.028 |
| CGGATTCGTA | 0.986 ± 0.036 |
| CGGATTGTAG | 1.03 ± 0.04 |
| CGGCAAGTGG | 1.05 ± 0.031 |
| CGGCAATCCT | 3.99 ± 0.15 |
| CGGCAGGGGG | 1.06 ± 0.1 |
| CGGCATGCGG | 1.022 ± 0.0035 |
| CGGCATGGAG | 0.996 ± 0.025 |
| CGGCCAGCTG | 1.03 ± 0.03 |
| CGGCCCACGC | 1.04 ± 0.082 |
| CGGCCCAGAA | 1 ± 0.015 |
| CGGCCGTATA | 0.998 ± 0.013 |
| CGGCCTAAGG | 1.01 ± 0.016 |
| CGGCGAGAAC | 1.045 ± 0.0023 |
| CGGCGCGGAT | 1.02 ± 0.04 |

| Sequence | switch fluorescence ratio |
| --- | --- |
| CGGCGGCACC | 1.0893 ± 0.00071 |
| CGGCGGCAG | 1.03 ± 0.064 |
| CGGCGGGAAG | 1 ± 0.023 |
| CGGCGGGAGC | 1.05 ± 0.038 |
| CGGCGGGCTG | 0.989 ± 0.062 |
| CGGCGGGGTG | 1.04 ± 0.055 |
| CGGCGGGTCT | 0.98 ± 0.052 |
| CGGCGGGTGG | 1.02 ± 0.041 |
| CGGCGTAGGG | 1.12 ± 0.15 |
| CGGCGTTATG | 0.988 ± 0.014 |
| CGGCTAAGGG | 0.981 ± 0.014 |
| CGGCTACTTT | 1.03 ± 0.038 |
| CGGCTATGTG | 0.985 ± 0.027 |
| CGGCTATTAA | 1.044 ± 0.0086 |
| CGGCTGCGTG | 0.998 ± 0.0073 |
| CGGCTGGCGA | 1.01 ± 0.059 |
| CGGCTGGCTG | 1.04 ± 0.011 |
| CGGCTGGTCA | 0.984 ± 0.021 |
| CGGCTGTCAC | 1.03 ± 0.025 |
| CGGCTGTGGT | 1.01 ± 0.03 |
| CGGCTTGGT | 1.02 ± 0.015 |
| CGGCTTGTG | 0.99726 ± 0.00036 |
| CGGGAAAACG | 0.995 ± 0.012 |

| Sequence | switch fluorescence ratio |
| --- | --- |
| CGGGAAATGG | 1.007 ± 0.0064 |
| CGGGAACGGA | 0.984 ± 0.033 |
| CGGGAACGGT | 1.01 ± 0.026 |
| CGGGAACTTT | 1.02 ± 0.065 |
| CGGGAAGCTT | 1 ± 0.082 |
| CGGGAAGGGC | 1.19 ± 0.32 |
| CGGGAAGTTC | 1.03 ± 0.016 |
| CGGGAATCGT | 1 ± 0.05 |
| CGGGAATGGC | 1.06 ± 0.079 |
| CGGGAATTTT | 1 ± 0.013 |
| CGGGACATAG | 0.964 ± 0.026 |
| CGGGACCGGA | 1.02 ± 0.073 |
| CGGGACCTGG | 0.958 ± 0.077 |
| CGGGACGGAG | 0.997 ± 0.11 |
| CGGGAGAAAG | 1 ± 0.022 |
| CGGGAGATTA | 0.9872 ± 0.0084 |
| CGGGAGGGAC | 0.994 ± 0.057 |
| CGGGAGGGAG | 1 ± 0.05 |
| CGGGAGGTAT | 1 ± 0.012 |
| CGGGATCTGT | 1.01 ± 0.024 |
| CGGGATGTCA | 0.955 ± 0.038 |
| CGGGCAACGT | 1.02 ± 0.037 |
| CGGGCAAGGT | 1.038 ± 0.01 |

| Sequence | switch fluorescence ratio |
| --- | --- |
| CGGGCATTGT | 1.01 ± 0.051 |
| CGGGCCTTTT | 1 ± 0.023 |
| CGGGCGAGGA | 0.989 ± 0.029 |
| CGGGCGCAGT | 1.02 ± 0.043 |
| CGGGCGGGAC | 1.59 ± 0.021 |
| CGGGCGGGGG | 1.06 ± 0.12 |
| CGGGCTCAGC | 1.008 ± 0.0094 |
| CGGGCTTATT | 0.988 ± 0.02 |
| CGGGCTTTTT | 1.016 ± 0.0065 |
| CGGGGAAATG | 0.997 ± 0.023 |
| CGGGGAAGTT | 0.9847 ± 0.0079 |
| CGGGGACGAC | 1.63 ± 0.72 |
| CGGGGACTGG | 0.9726 ± 0.0072 |
| CGGGGAGGTG | 1.1 ± 0.087 |
| CGGGGAGTCG | 0.945 ± 0.023 |
| CGGGGATGGC | 0.979 ± 0.011 |
| CGGGGATGGG | 0.992 ± 0.022 |
| CGGGGATTAG | 0.994 ± 0.017 |
| CGGGGATTGC | 1.01 ± 0.016 |
| CGGGGCCTTT | 1.02 ± 0.037 |
| CGGGGCGGAT | 1.04 ± 0.016 |
| CGGGGCTTAT | 0.9909 ± 0.0014 |
| CGGGGGAAGC | 1.02 ± 0.041 |

| Sequence | switch fluorescence ratio |
| --- | --- |
| CGGGGGACGG | 0.982 ± 0.029 |
| CGGGGGAGAC | 0.971 ± 0.019 |
| CGGGGGAGCT | 1.02 ± 0.029 |
| CGGGGGATGC | 1.05 ± 0.036 |
| CGGGGGATTA | 1.02 ± 0.049 |
| CGGGGGCAGA | 1 ± 0.023 |
| CGGGGGCCCT | 1.01 ± 0.034 |
| CGGGGGCGCT | 1.02 ± 0.013 |
| CGGGGGCTGC | 1.13 ± 0.1 |
| CGGGGGGAGC | 1.01 ± 0.056 |
| CGGGGGGATG | 1.01 ± 0.033 |
| CGGGGGGATT | 0.997 ± 0.012 |
| CGGGGGGCAT | 0.994 ± 0.022 |
| CGGGGGGCCT | 1.01 ± 0.028 |
| CGGGGGGGAA | 0.999 ± 0.03 |
| CGGGGGGGG | 1 ± 0.059 |
| CGGGGGGTCA | 1.01 ± 0.018 |
| CGGGGGGTGC | 1.01 ± 0.082 |
| CGGGGGTGTT | 0.998 ± 0.023 |
| CGGGGGTTAC | 1.4 ± 0.56 |
| CGGGGTACGG | 1.01 ± 0.017 |
| CGGGGTATTG | 0.999 ± 0.039 |
| CGGGGTCGG | 1 ± 0.014 |

| Sequence | switch fluorescence ratio |
| --- | --- |
| CGGGGTCTGG | 0.978 ± 0.015 |
| CGGGGTGGGT | 0.978 ± 0.028 |
| CGGGGTGGTG | 1.04 ± 0.067 |
| CGGGGTGTT | 0.994 ± 0.017 |
| CGGGGTTAGC | 1.01 ± 0.014 |
| CGGGTAACTT | 1.02 ± 0.046 |
| CGGGTAGCTT | 1.017 ± 0.0093 |
| CGGGTAGGGT | 0.998 ± 0.039 |
| CGGGTATATT | 1.01 ± 0.032 |
| CGGGTCATTT | 0.9691 ± 0.0035 |
| CGGGTCGAGC | 1 ± 0.03 |
| CGGGTCGCGG | 0.992 ± 0.031 |
| CGGGTCGGCG | 1.01 ± 0.049 |
| CGGGTCTAGC | 1.01 ± 0.021 |
| CGGGTGCGTG | 0.981 ± 0.017 |
| CGGGTGGCTG | 0.995 ± 0.035 |
| CGGGTTAGTC | 1.07 ± 0.027 |
| CGGGTTCTCG | 0.978 ± 0.025 |
| CGGGTTGAG | 0.9967 ± 0.0066 |
| CGGGTTGCAG | 0.97 ± 0.019 |
| CGGGTTTAAG | 0.9933 ± 0.0026 |
| CGGGTTTGGA | 0.998 ± 0.035 |
| CGGGTTTGTT | 0.997 ± 0.02 |

| Sequence | switch fluorescence ratio |
| --- | --- |
| CGGTACTTAT | 0.983 ± 0.017 |
| CGGTAGAGGG | 0.982 ± 0.037 |
| CGGTAGAGGT | 1.01 ± 0.016 |
| CGGTAGGAAT | 1.018 ± 0.0077 |
| CGGTAGTCGG | 1.03 ± 0.027 |
| CGGTAGTTGT | 0.981 ± 0.014 |
| CGGTATAATT | 0.999 ± 0.042 |
| CGGTATATTT | 0.9712 ± 0.0058 |
| CGGTATGAGG | 0.9 ± 0.11 |
| CGGTCAATTG | 1 ± 0.036 |
| CGGTCGACGA | 1.01 ± 0.024 |
| CGGTCTGAGG | 1.017 ± 0.002 |
| CGGTGAAGGG | 0.994 ± 0.027 |
| CGGTGACTGC | 1.02 ± 0.099 |
| CGGTGAGTAG | 0.9876 ± 0.0092 |
| CGGTGCCAAG | 0.988 ± 0.042 |
| CGGTGCTTGT | 1.02 ± 0.037 |
| CGGTGGACTA | 1.008 ± 0.01 |
| CGGTGGAGCT | 1.01 ± 0.052 |
